Assay results from the nanobody polyreactivity screen of Harvey et al. (2022).

Experiment: yeast display, Sf9 membrane polyspecificity reagent, FACS + sequencing; frameworks hold sequencing errors
Summary of the method: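 A synthetic nanobody library was expressed on Saccharomyces cerevisiae BJ5465 by galactose induction for 36–48 hours. The library was stained for 1 hour at 4 °C with 10% biotinylated, detergent-solubilized Sf9 membrane reagent and enriched with streptavidin microbeads before FACS. Low and high (top ~1%) gates were set on anti-HA fluorescence for expression and streptavidin fluorescence for reagent binding, and each polyreactivity label reflects the gate of origin.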

Sequence | polyreactivity (PSR sort gate)
QVQLVESGGGLVQAGGSLRLSCAASGRTFGWNAMGWYIQAPGKERELVAAITSGGSTSYADSVKGRFTISRDNEKNTVYLQMNCLKPEDTAVYYCAAYLGIYSRVNYWGQGTQVTVSS | low polyreactivity
QVQLVESGGGLVQAGGSLRLSCAASGRTFGWNVMGWYRQAPGKERELVAAISGGGTSTYYADSVKGRFTISRDNAKNTVYLQMNSLKPEDTGVYYCNAYYPGSYYPRSGRYDYWGQGTQVTVSS | high polyreactivity
QVQLVESGGGLVQAGGSLRLSCAASGRTFGWNVMGWYRQAPGKERELVAAISGSGASTYYADSVKGRFTISRDNAKNTVYLQMNSLKPEDTAVYYCAAVQGYRFYEYYYWGQGTKVTVSS | low polyreactivity
QVQLVESGGGLVQAGGSLRLSCAASGRTFGYAMGWYRQAPGKERERVAAISSGGGRTYYADSVKGRFTISRDNAKNTVYLQMNSLKPEDTAVFYCNARHIFGASRRARFGYWGQGTQVTVSS | high polyreactivity
QVQLVESGGGLVQAGGSLRLSCAASGRTFGYNAMAWYRQAPRKERELVAAISRGGSTNYADSVKGRFTISRDNAKNTVYLQMNSLKPEDTAVYYCAAYDWRVLWGYDYWGQGTQVTVSS | low polyreactivity
QVQLVESGGGLVQAGGSLRLSCAASGRTFGYNAMGWYRQAPGKERELVAAINDGGSTNYADSVKGRFTISRDNAKNTVYLQMNSLKPEDTAVYYCATDFSNGRQSTFPYEYYYWGQGTQVTVSS | high polyreactivity
QVQLVESGGGLVQAGGSLRLSCAASGRTFGYNAMGWYRQAPGKERELVAAITYSGGRTSYADSVKGRFTISRDNAKNTVYLQMNSLKPEDTAFYYCAAQPRYYSGYNYWGQGTQVTVSS | high polyreactivity
QVQLVESGGGLVQAGGSLRLSCAASGRTFGYNGMGWYRQAPGKEREFVAAITWSGGRTYYADSVKGRFTISRDKAKNTVYLQMNSLKPEDTAVYYCAAGKYRYTYYALEYDYWGQGTQVTVSS | low polyreactivity
QVQLVESGGGLVQAGGSLRLSCAASGRTFGYNTMGWYRQAPGKEREFVATIRTNGVSTYYADSVKGRFTISRDNAKNTVYLQMNSLKPEDTAVYYCNAPRTRKQKTIYVNAPGNYWGQGTQVTVSS | low polyreactivity
QVQLVESGGGLVQAGGSLRLSCAASGRTFGYNVMGWYRQAPGKEMELVAGITSSGSTNYADSVKGRFTISRDNAKNTVYLQMNSLKPEDTAVYYCNADRLITWQLLYISSYRYDYWGQGTQVTVSS | high polyreactivity
QVQLVESGGGLVQAGGSLRLSCAASGRTFGYYAMGWYRPAPGKEREFVAAISFRTTSTYYADSVKGRFTISRDNAKNTVYLQLNSLKPEDTAVYYCNVVVKGAWDYYPYDYWGQGPQVTVSS | high polyreactivity
QVQLVESGGGLVQAGGSLRLSCAASGRTFGYYAMGWYRPAPGKERELVAAISSGGRTYYADSVKGRFTISRDNAKNTVYLQMNSLKPEDTAVYYCNAASLVAYLARLGRDYWGQGTQVTVSS | low polyreactivity
QVQLVESGGGLVQAGGSLRLSCAASGRTFGYYAMGWYRPAPGKERELVASITGGGSTNYADSVKGRFTISRDNAKNTVYLQMNSLKPEDTAVYYCAAETITDDYYEYDYWGQGTQVTVSS | low polyreactivity
QVQLVESGGGLVQAGGSLRLSCAASGRTFGYYAMGWYRPEHGTERELVAAITRTGGSTHYADSVKGRFTISRDNAKNTVYLQMNSLKPEDTAVYYCARDYRYTIPYDYWGQGTQVTVSS | low polyreactivity
QVQLVESGGGLVQAGGSLRLSCAASGRTFGYYAMGWYRQAPGIERELVATITWGDGTTYYADSVKGRFTFSRDNAKNTVYLQMNILKPEDTAVYYCAVDRSSWWWDDYRYDYWGQGTQVTVSS | low polyreactivity
QVQLVESGGGLVQAGGSLRLSCAASGRTFGYYAMGWYRQAPGKERELVAAINSRGGSTYYADSVKGRFTISRDNAKNTVYLQMNSLKPEDTAVYYCAVVRWRHYIFATYDYWGQGTQVTVSS | high polyreactivity

Sequence | polyreactivity (PSR sort gate)
QVQLVESGGGLVQAGGSLRLSCAASGRTFGYYAMGWYRQAPGKERELVAAISRSGSRTYYADSVKGRFTISRDNAKNTVYLQMNSLKPEDTAVYYCNKVKEFYVPTEYDYWGQGTQVTVSS | high polyreactivity
QVQLVESGGGLVQAGGSLRLSCAASGRTFGYYAMGWYRQAPGKERELVAAISTRSGSTYYADSVKGRFTISRDNAKNTVYLQMNSLKPEDTAVYYCDADSYPDYDYWGQGTQVTVSS | low polyreactivity
QVQLVESGGGLVQAGGSLRLSCAASGRTFGYYAMGWYRQAPGKERELVAAISYSSTITYYAGSVKGRFTISRDNAKNTVYLQMNSLKPEDTAVYYCAAYSTRGVEYDYWGQGTQVTVSS | high polyreactivity
QVQLVESGGGLVQAGGSLRLSCAASGRTFGYYAMGWYRQAPGKERELVASISWIGDDTYYADSVKGRFTISRDYAKNTVYLQMNSLKPEDTAVYYCNAVYAGRYFGFDYWGQGTQVTVSS | high polyreactivity
QVQLVESGGGLVQAGGSLRLSCAASGRTFGYYGMGWYRQAPGKEREFFAAITRSGGSTYYADSVKGRFTISRDNAKNTVYLQMNSLKPEDTAVYYCAAAHLFTRSRPYDYWGQGTQVTVSS | high polyreactivity
QVQLVESGGGLVQAGGSLRLSCAASGRTFGYYTMGWYRQAPGKEREFVAAISGSGTITFYADSVKGRFTISRDNAKNTVYLQMNSLKPEDTAVYYCAADYRYGGSRGYRYDYWGQGTQVTVSS | low polyreactivity
QVQLVESGGGLVQAGGSLRLSCAASGRTFGYYTMGWYRQAPGKERELVATITSSGGSTYYADSVKGRFTISRDNAKNTVYLQMNSLKPEDTAVYYCAARRKQGAYDYWGQGTQVTVSS | high polyreactivity
QVQLVESGGGLVQAGGSLRLSCAASGRTFHANAMGWYRQAPGKERELVAAISYRTGSTYYADSVKGRFTISRDNAKNTVYLQMNILKPDDTAVYYCDVDTRYGYGYWGQGTQVTVSS | high polyreactivity
QVQLVESGGGLVQAGGSLRLSCAASGRTFHGYAMGWYRQAPGKERELVARINWSDGRTYYADSVKGRFTISRDNAKNTVYLQMNSLKPEEPAVYYCAATRYYYYWYVYEDRGDFWGQGTQVTVSS | low polyreactivity
QVQLVESGGGLVQAGGSLRLSCAASGRTFHTNAMGWYRQAPGKERELVAAITRSGSGTYYADSVKGRFTISRDNAKNTVYLQMNSLKPEDTAVYYCNAVRRGEYDYWGQGTQVTVSS | high polyreactivity
QVQLVESGGGLVQAGGSLRLSCAASGRTFHYNAMGWYRQAPGKERELVAAITRSGGSTYYADSLKGRFTISRVNAKNTVYLQMNSLKPEDTAVYYCAAGWRSVSVRYYGPSDYWGQGTQVTVSS | low polyreactivity
QVQLVESGGGLVQAGGSLRLSCAASGRTFHYYAMGWYRQAPGKERELVAGITGGGSTYYADSVKGRFTISRDNAKNTVYLQMNSLKPEDTAVYYCNARPYWFGSYGYWGQGTQVTVSS | low polyreactivity
QVQLVESGGGLVQAGGSLRLSCAASGRTFHYYAMGWYRQAPGKERELVASISSGGSTHYADSVKGRFTISRDNANNTGYLQMNSLKPEDTAVYYCNRVDGYGPRNKVPYVTYGVYYWGQGTQVTVSS | low polyreactivity
QVQLVESGGGLVQAGGSLRLSCAASGRTFIEYAMAWYRQAPGKERELVAAISRNDGGSTYYADSVKGRFTISRDNAKNTVYLQMNSLKPEDTAVYYCAARRYISAHVRYGSWGQGTQVTLSS | high polyreactivity
QVQLVESGGGLVQAGGSLRLSCAASGRTFIGYAMGWYRQAPGKERELVAAISRGGSTKYADSVKGRFTISRDNAKNTVYLQMNSLKPEDTAVYYCAVGWSYYAGLRHRYYSGFDYWGQGTQVTLSS | low polyreactivity
